Assay results from the nanobody polyreactivity screen of Harvey et al. (2022).

Experiment: yeast display, Sf9 membrane polyspecificity reagent, FACS + sequencing; frameworks hold sequencing errors
In short: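 Genes from sorted yeast were amplified by colony PCR, read by MiSeq 2 × 250 sequencing and filtered on CDR length. These cells carried a synthetic nanobody library in Saccharomyces cerevisiae BJ5465 and were sorted by FACS into low and high (top ~1%) gates on anti-HA and streptavidin fluorescence. Polyreactivity is labelled according to the gate of origin.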

Sequence | polyreactivity (PSR sort gate)
QVQLVESGGGLVQAGGSLRLSCAASGLTFYRNAMGWYRQAPGKEREFVAAITSTDGSTYYADSVKGRFTISRDNAKNTVYLQMNSLKPEDTAVYYCAARRRRWSGYWGQGTQVTVSS | high polyreactivity
QVQLVESGGGLVQAGGSLRLSCAASGLTFYRYAMGWYRQAPGKERELVAAITSGTRTYYADSVKGRFTISRDNAKNTVYLQMNSLKPEDTAVYYCAFRQGWYHFRYDYWGQGTQVTVSS | high polyreactivity
QVQLVESGGGLVQAGGSLRLSCAASGLTFYSNAMGWYRQAPGKERELVARISTGGSTYADSVKGRFTISRDNAKNTVYLQMNSLKPVDTAVYYCAVDGWDDTYFRQDMDYWGQGTQVTVSS | low polyreactivity
QVQLVESGGGLVQAGGSLRLSCAASGLTFYTNAMGSYRQAPGKERELLAAITSSGGRTYYADSVKGRFTISRDNAKYTVYLQMNSLKPEDTAVYYCAADARRPRIPEMYYWGLGTQVTVSS | high polyreactivity
QVQLVESGGGLVQAGGSLRLSCAASGLTFYYNAMGWYRQAPGKERELVAAISFSGGRTYYADSVKGRFTISRDNAKNTVYLQMNSLKPEDTAVYYCAADWVRNWYTSGSWGQGTQVTVSS | high polyreactivity
QVQLVESGGGLVQAGGSLRLSCAASGLTFYYNAMGWYRQAPGKERELVAAISRYGGSTYYADSVKGRFRISRDNAKNTDYLQMNSLKPEDTAVYYCAVAYVYTRKGRVQPVKYDYWGQGTQVTVSS | high polyreactivity
QVQLVESGGGLVQAGGSLRLSCAASGLTFYYNAMGWYRQAPGKERELVAAITWSTDSTYYADSVKGRFTISRDNAKNTVYLQMNSLKPEDTAVYYCAAAVDAFTNKQYYYWGQGTQVTVSS | low polyreactivity
QVQLVESGGGLVQAGGSLRLSCAASGLTFYYYAMGWYRQAPGKERELVAGISGSDGSTYYADSVKGRFTISRDNAKNTVYLQMNSLKPEDTAVYYCAAEYYYPWPLYYITDGIYDMYYWGQGTQVTVSS | low polyreactivity
QVQLVESGGGLVQAGGSLRLSCAASGLTFYYYAMGWYRQAPGKERELVATISGSGGNTYYADSVKGRFTISRDNAKNTVFLQMNSLKPEDTAVYYCNARYRWWLYYSRDRVYYWGQGTQVTVSS | high polyreactivity
QVQLVESGGGLVQAGGSLRLSCAASGLTFYYYVMGWYRQAPGKERELVAAISKSGGRTYYADSVKGRFTISRDNAKNTVYLQMNSLKPEDSAVYYCAAMYTPNYTAYDSWGQGTQVTVSS | high polyreactivity
QVQLVESGGGLVQAGGSLRLSCAASGLTFYYYVMGWYRQAPGKERELVAAISKSGGRTYYADSVKGRFTISRDNAKNTVYLQMNSLKPEDTAVYYCAALYTPNYTAYDSWGQGTQVTVSS | high polyreactivity
QVQLVESGGGLVQAGGSLRLSCAASGLTIFVYAMGWSRQAPGKERELVAAISDSGGSTYYADSVKGRFTISRDNAKNTVYLQMNSLKPEDTAVYYCAADYRGIYSGIWGDYWGQGTQVTVSS | low polyreactivity
QVQLVESGGGLVQAGGSLRLSCAASGLTIGYYAMGWYRQAPGKERELVAAISGSGGATYYADSVKGRFTISRDNAKNTVYLQMNSLKPEDTAVYYCAAKWGRTGRFDYWGQGTQVTVSS | low polyreactivity
QVQLVESGGGLVQAGGSLRLSCAASGLTIQRNDMGWYRQAPGKEREFVATITSNAGSTYYADSVKGRFTISRDNAKNTVYLQMNSLKPEDTAVYYCARERWWGGSDYWGQGTQVTVSS | high polyreactivity
QVQLVESGGGLVQAGGSLRLSCAASGLTIRSYGMGWYRQAPGKERELVASITWSGGSTYYADSVKGRFTISRDNAKNTVYLQMNSLKPEDTAVYYCAASFDFQGYHYGYWGQGTQVTVSS | high polyreactivity
QVQLVESGGGLVQAGGSLRLSCAASGLTISYYAMGWYRQAPGKERELVAAISTDSSTNYADSVKGRFTISRDNAKNTVYLQMISLKPEDTAVYYCAAVVVYGPIHGYWGQGTQVTVSS | low polyreactivity
QVQLVESGGGLVQAGGSLRLSCAASGLTIWRYAMGWYRQAPGKEREFVATISQYGGRTYYAASVKGRFTITRDNAKKTVNLQMNSLKPEDTAVYYCAADDWRWGYDYWGPGTQVTVSS | high polyreactivity
QVQLVESGGGLVQAGGSLRLSCAASGLTLAPNAMGWYRQSPGKERELVAAITRSGGDTYYADSVKGRFTISRDTAKNTVYLQMNSLKPEDTAVYYCAADYWFRYGTYTGLTSYYYWGQGTQVTVSS | high polyreactivity
QVQLVESGGGLVQAGGSLRLSCAASGLTLAYAMGWYRQPPGKEREFVAAISSSGGSTYYADSVKGRFTISRDNAKNTVYLQMNSLKPEDTAVYYCAARTNPGRYYYRFSGGSWGQGTQVTVSS | high polyreactivity
QVQLVESGGGLVQAGGSLRLSCAASGLTLDYYARGWYRQAPGKDRELVAVIRGRSGSTYYADSVKGRFTISRDNAKNTVYLQMNSLKPEDTAVYYCARVTTYGDYYWGQGTQVTVSS | high polyreactivity
QVQLVESGGGLVQAGGSLRLSCAASGLTLGSYAMGWYRLAPGKERELVAAISRRSGRTYYADSVKGRFTISRDNAKNTVYVQMNSLKPEDTAVYYCNRGYTAQVYTEFDYWGHGTQVTVSS | low polyreactivity
QVQLVESGGGLVQAGGSLRLSCAASGLTLKRYAMGWYRQAPGKERELDAAISKSGGSTYYADSVKGRFTSSRDNAKNTVYLQMNSLKPEDTPVYYCAADSYNLWDDYWGQGTQVTVSS | low polyreactivity

Sequence | polyreactivity (PSR sort gate)
QVQLVESGGGLVQAGGSLRLSCAASGLTLPWYAMGWYRQAPGKERELVAAITWDGTRTYYADSVKGRFTISRDNAKNTVYLQMNSLKPEDTAVFYCNARRVRGTFYRSGVVGYSYWGHGTQVTVSS | high polyreactivity
QVQLVESGGGLVQAGGSLRLSCAASGLTLQPYAMGWYRQAPGKERELVAAITSGGSTYYADSVKGRFTISRDNAKNTVYLQMNSLKPEDTAVYYCAAVGRHYYVKFDYWGQGTQVTVSS | low polyreactivity
QVQLVESGGGLVQAGGSLRLSCAASGLTLRYYVMGWYRQAPGKERELVASITRSGGSTSYADSVKGRFTISRDNAKNTVYLQMNSLQPEDTAVYYCNRRTYVGTRASFLYYYWGQGTQVTVSA | high polyreactivity
QVQLVESGGGLVQAGGSLRLSCAASGLTLTSNAMGWYRQAPGKERELVAAINGSGGITYYADSVKGRFTISRDNAKNTVYLQMNSLKPEDTAVYYCNTVHYNLDYEYDYWGQGTQVTVSS | low polyreactivity
QVQLVESGGGLVQAGGSLRLSCAASGLTLYINAMGWYRQAPGKERELVAAIRTVGRTRYADSVKGRFTISRDNAKNTVYLQMNSLKPEDTAVYYCNARRYLRGYGYGYWGQGTQVTVSS | high polyreactivity
QVQLVESGGGLVQAGGSLRLSCAASGLTLYKNGMGWYRQAPGKERELVARITSGGRTYYADSVKGRFTISRDNAKNTVYLQMNSLKPEDTAVYYCNAVKSYASLCAGFYYWGQGTQVTVSS | high polyreactivity
QVQLVESGGGLVQAGGSLRLSCAASGLTLYRYAMGWYRQPPGKEREMVAGISWGGGSTYYADSVKGRFTISRDNAKNTVYLQMNSLKPEDTAVYYCAAGRLLYIPRYYYWGQGTQVTVSS | high polyreactivity
QVQLVESGGGLVQAGGSLRLSCAASGLTLYTYAMGWYREAPGKESELVAAISKNGGRTYYADSVKGRFTISRDNAKNTVYLQMNSLKPEDTAVYYCAARARVGTVTFDFWGQGTQVTVSS | high polyreactivity
QVQLVESGGGLVQAGGSLRLSCAASGLTSIHYMGWSRQAPGKERELVATITSSTGSTYYADSVKGRFTISRDNAKNTVYLQMNSLKPEDTAVYYCAAESFGADGPYQPSYDYWGQGTQVTVSS | low polyreactivity
QVQLVESGGGLVQAGGSLRLSCAASGLTSLGNAMGWYRQAPGKERELVAAITRTGTSTYYADSVKGRFTISRDNAKNTVYLQMNSLKPEDTAVYYCAALDRYSTEYKYQLYKQEYDYWGQGTQVTVSS | low polyreactivity
QVQLVESGGGLVQAGGSLRLSCAASGLTVDTYDMGWYIQAPGKERELVAAIDWSGVSTYYADSVKGRFTISRDNAKNTVYLQKNSLKTEDTAVYYCAADLLQYDIASWDYTYDYWGQGTQVTVSS | low polyreactivity
QVQLVESGGGLVQAGGSLRLSCAASGLTYAKYVMRWYRQAPGNERELVAAISRSGGSTFYADSVKGRFTISRDNAKNTVYLQMNSLKPEDTAVYYCAAAAWDPKGSRYDYWGQGTQVTVSS | low polyreactivity
QVQLVESGGGLVQAGGSLRLSCAASGLTYSNAMGWYRQAPGKERELVAAISWRGGRTYYADSVKGRFTISRDNAKNTVYLQMNSLKPEDTAVYYCAKYAHGHKWYGYWGQGTQVTVSS | low polyreactivity
QVQLVESGGGLVQAGGSLRLSCAASGLTYYYYAKGWYRQAPGKERDFVAAISRSGGTTYYADSVKGRFTISRDNAKNTDYLQMNSLKPEDTAVYYCNAQWWRYRPSQVIFDYWGQGTQVNVSS | high polyreactivity
QVQLVESGGGLVQAGGSLRLSCAASGMGWYRQAPGKERELVAAITSTDGSTYYADSVKGRFTISRDNAKNTVYLQMNSLTPEDTAVYYCAVEPYLWPVFSDDDYWGQGTQVTVSS | low polyreactivity
QVQLVESGGGLVQAGGSLRLSCAASGNIFARYAMGWYRQAPGKERELVAAISRSGGSTYYADSVKGRFTISRDNAKNTVYLQMNSLKPEDTAVYYCNAKSYGVLYWFAYDYWGQGTQVTVSS | high polyreactivity
QVQLVESGGGLVQAGGSLRLSCAASGNIFAVNAMGWSRQAPGKERELVARIRYSTGRTYYADSVKGRFTISRDNAKNTVYLQMNSLKPEDTAVYYCATDYYTTRVPGGYDYWGHGTQVTVSS | high polyreactivity
QVQLVESGGGLVQAGGSLRLSCAASGNIFAVYAMGWYRQAPGKERELVAAISYSSTRTYYADSVKGRFRISRDNAKNTVYLQMNSLKPEDTAVYYCAVETWWDYDYWGQGTQVTVSS | high polyreactivity
QVQLVESGGGLVQAGGSLRLSCAASGNIFAWSAMGWYRQAPGKERELVARITVGSTYYADSVKGRFTISRDNAKNTVYLQMNSLKPEDTAVYYCNKDSGEDDRWPYDYWGQGTQVTVSS | low polyreactivity
QVQLVESGGGLVQAGGSLRLSCAASGNIFAYYAMGWYRQAPGKERELVAAITDSGGNTFYADSVKGRFTISRDNAKNTVYLQMNSLKPEDTAVYYCAADPDGWGFVYPRYDYWGQGTQVTVSS | low polyreactivity
QVQLVESGGGLVQAGGSLRLSCAASGNIFAYYAMGWYRQAPGKERELVAGISRRGGNTYYADSVKGRFTISRDNAKNTVYLQMNSLKPEDTAVYYCAAKTYSGQRFDYWGQGTQVTVSS | high polyreactivity
